# Data: IntAct's records for PubMed 19765570
# B1: Guanine nucleotide-binding protein alpha-4 subunit (Dictyostelium discoideum (Slime mold)), P34042 (parent)
# chain: MRFKCFGSEETEQSSKIDKSIETDRRKLRKDVKLLLLGPGESGKSTIFKQMKIIQEDGGYSVEELLEYRAFVYSNCISQMEALLTASAKLNIELEVENKQRAANVLRRTIGNEPWLLLAADIKHLWEDKGIKETYAQKDKHFQLNDSAAYFFDNIDRYMREDFVPNEQDVLRCRVRTTGIQESEFTFDKIRLKIVDVGGQRSQRRKWIHCFDCVTAVIFVAAMSDYDQVLREDESVNRTRESLALFKEIVNCDYFKETPIVLFLNKKDLFKEKLKRVPLQSCFSDYTGPNKYKDAAMFIQSQYLAQGPSPRTIYTHATCAVDTENIKFVFRAVRQTILSQALEHF
# partner: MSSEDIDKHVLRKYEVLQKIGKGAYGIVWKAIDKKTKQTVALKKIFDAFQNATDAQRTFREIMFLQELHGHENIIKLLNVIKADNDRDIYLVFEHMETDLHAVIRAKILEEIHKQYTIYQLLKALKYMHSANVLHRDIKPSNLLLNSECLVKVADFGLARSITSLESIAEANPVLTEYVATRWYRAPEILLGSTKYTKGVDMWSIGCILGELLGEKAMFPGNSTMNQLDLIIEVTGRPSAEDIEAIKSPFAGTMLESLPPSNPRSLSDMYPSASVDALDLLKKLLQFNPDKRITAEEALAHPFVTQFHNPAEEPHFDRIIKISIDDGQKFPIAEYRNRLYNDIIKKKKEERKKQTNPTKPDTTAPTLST
# Variants of: B1
# Conditions: with erk2_dicdi erkB
row,effect of a mutation on the interaction,Variant
1,decreasing interaction,MRFKCFGSEETEQSSKIDKSIETDRRKLRKDVKLLLLGPGESGKSTIFKQMKIIQEDGGYSVEELLEYRAFVYSNCISQMEALLTASAKLNIELEVENKQRAANVLEETIGNEPWLLLAADIKHLWEDKGIKETYAQKDKHFQLNDSAAYFFDNIDRYMREDFVPNEQDVLRCRVRTTGIQESEFTFDKIRLKIVDVGGQRSQRRKWIHCFDCVTAVIFVAAMSDYDQVLREDESVNRTRESLALFKEIVNCDYFKETPIVLFLNKKDLFKEKLKRVPLQSCFSDYTGPNKYKDAAMFIQSQYLAQGPSPRTIYTHATCAVDTENIKFVFRAVRQTILSQALEHF [R107E;R108E]
2,decreasing interaction,MRFKCFGSEETEQSSKIDKSIETDRRKLRKDVKLLLLGPGESGKSTIFKQMKIIQEDGGYSVEELLEYRAFVYSNCISQMEALLTASAKLNIELEVENKQRAANVLRRTIGNEPWLLLAADIKHLWEDKGIKETYAQKDKHFQLNDSAAYFFDNIDRYMREDFVPNEQDVLRCRVRTTGIQESEFTFDKIRLKIVDVGGLRSQRRKWIHCFDCVTAVIFVAAMSDYDQVLREDESVNRTRESLALFKEIVNCDYFKETPIVLFLNKKDLFKEKLKRVPLQSCFSDYTGPNKYKDAAMFIQSQYLAQGPSPRTIYTHATCAVDTENIKFVFRAVRQTILSQALEHF [Q200L]
